Measurements published in the supplement of paper PMC9170038.

System: K4 kissing-loop RNA reporter
Test: apparent KD of K4 kissing-loop reporter; higher = weaker reporter binding
Conditions: Eterna round: R107
Protocol: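 RNA-MaP round R107: designed RNA switches with theophylline, tryptophan, arginine or FMN aptamers are transcribed on-chip within common flanks. They are titrated with a labelled K4 kissing-loop RNA reporter in RNA-MaP buffer (100 mM Tris pH 7.5, 80 mM KCl, 4 mM MgCl2), without ligand or with the indicated ligand. Median apparent KD per design.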

[1] = input ligand: theophylline 20 uM
[2] = input ligand: tryptophan 2.4 mM
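Note: bound reporter read as fluorescence of individual clusters on recovered sequencing chips by microscopy, with normalized cluster intensities fitted with a binding model.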

Sequence	apparent KD of K4 kissing-loop reporter (input ligand: FMN 200 uM) [nM]	apparent KD of K4 kissing-loop reporter (input ligand: arginine 13.2 mM) [nM]	apparent KD of K4 kissing-loop reporter (input ligand: none) [nM]	apparent KD of K4 kissing-loop reporter [1] [nM]	apparent KD of K4 kissing-loop reporter [2] [nM]
CAUGGGCCAGUGAUGUUGGCGCGCACGGGACGAGGACCGGUACGGCCGCCACUCGCUUUUGCUCUUAUCGGGAUAAGAAAACCGA [Enveerorle]	453	134	567	309	635
CCAACAACGAGUGAUGUUCGUUGAUCUGAAGGAGCGUCAAUAAUGACAGGUAGGUCGCAGAUAAUUGGAUAUAGGGCAAUAGCUC [Same State Arginine A GF13]	109	116	125	115	102
CCAGGACGAUGAGGAGGAUGAAUUACUGAAGGAGCGCAUAUGGUUGCAGGUAGGUCGCGGUGAACAAGUAUAGUGAUGUUAUACC [SSArgA.T]	339	290	368	343	445
CCAUCGCUAUUCGAUACCAGCUACUUAGUGAUGUUAAGUUUAAAUCCACUGUAGGUGGAAAGCCCUUGGCAGCGAAUAGUGAUGG [Theophylline B K4 24]	315	274	306	157	245
CCAUCGCUAUUCGAUACCAGCUACUUAGUGAUGUUAAGUUUAUAUCCACUGUAGGUGGAAAGCCCUUGGCAGCGAAUAGUGAUGG [Theophylline B K4 25]	436	412	491	223	425
CCCUUAGACUCGGCCGCCACUCGUACCGAGAGCAUGCCACCCAUUAGUGAUGUUAAUUUGUCCUUGAGGACCGGGAGCCUAGGAA [theeternabot_exclusion_KL_Trp_B_44]	941	789	980	986	822
CCGAAGAACCAGUGAUGUUGGUUGACUAGACAGGAUAUGAGCAACAUCAGAAGGGUCUGGCUUCGGGAGAGAGUCGCGCUGACCU [Anditebier]	208	350	388	28.7	453
CCGAAGAACCAGUGAUGUUGGUUGACUAGACAGGAUAUGAGCAACAUCAGAAGGGUCUGGCUUCGGGAGUAGGUCGCGCUGACCC [Diarrebi]	482	231	624	1260	231
CCGACUGCAGGAAGGAGCGGCGGUUGGAGUGAUGUUCCGGGUAGUGAUGUUACCAAGAUCCGCCAGGUAGGUCGCCUGUUGCUCG [Same State Arginine B GF11]	134	117	129	122	120
CCGAGCCUGACGAAAGUCAGGCUCUGCGAGCGAGGACCGGUACGGCCGCCACUCGGUGCAGUGAUGUUGCAUGGCCGCAAGGCCG [#2 Exclusion - Tryptophan A Attempt #22 (HarryS)]	156	223	240	261	312
CCGCUGUACUGCAUUAAGUGAUGUUUAGUGCAGGAUAUCUGGAAACAGAGAAGGGCAUGUACUCGACUUAGCCACUACAGCGGUU	221	123	142	119	129
CCUAUCUCAUACGAUACCAGUCAACGAGUGAUGUUCGAAUAAAUAAAUUUGCCAAAUAAUGACCCUUGGCAGCGUAUGGGAUAGG [Ex Theophylline B K4 15]	299	313	329	302	247
CCUAUCUCAUACGAUACCAGUCAAUUAAAUUUUAUAAAUGCCAUCACCGAGUGAUGUUCGGACCCUUGGCAGCGUAUGGGAUAGG [Ex Theophylline B K4 2]	222	175	198	310	187
CCUUCUCUUGAUAGUGAUGUUGUCGAGGACAAGGAUAUCAUCUCAAUGAGAAGGUGUCCUUGAUAACAUGGAGGUCUGAAACAGA [Omei KL FMN A Exc C v10]	468	394	333	365	420
CGAAGAAAGGUAUGUGGGAUCUGCGCGUAACGAGGACCGGUACGGCCGCCACUCGACGUCGCAUACGGCCCAGUGAUGUUGGGUG [theeternabot_sameState_KL_Trp_A_14]	74	55.9	75.4	74.9	53.4
CGAGUGAUGUUCGAAGAGUUGUUGAGCGAUACCAGCCAGGAAACUGGCCCUUGGCAGCGUAAUAAAUAAAUAAAUAAAUGAUCAC [whbob_Ex_Theo_A_th61]	364	464	410	635	333

Sequence	apparent KD of K4 kissing-loop reporter (input ligand: FMN 200 uM) [nM]	apparent KD of K4 kissing-loop reporter (input ligand: arginine 13.2 mM) [nM]	apparent KD of K4 kissing-loop reporter (input ligand: none) [nM]	apparent KD of K4 kissing-loop reporter [1] [nM]	apparent KD of K4 kissing-loop reporter [2] [nM]
CGCAAGCAGCCAGUGAUGUUGGCCGCCUUGCGAGGACCGGUACGGCCGCCACUCGAAGGCGGCUACUGAUAAACCGUCUAACGGA [KL-XTryp-A9]	112	96.3	105	95.4	274
CGCAGUGAUGUUGCGAAUAUAAUCACGGAAGGAGCGCGUGAAAACGCAGGUAGGUCGCCGUGUGGUAUGAUGGAAACAUCGUACC [Arginine A K4 12]	222	207	243	206	191
CGCAGUGAUGUUGCGAGUUUAUUCAGGGAAGGAGCGCCACAGAUGGCAGGUAGGUCGCCCACGCAGUGAUGUUGUGUAUUCGGGU [Exclusion Arginine A GF 3]	141	128	127	128	116
CGCAGUGAUGUUGCUUAUAUUCUUGGUUAACGAGGACCGGUACGGCCGCCACUCGAUUUCUAACUAUUCCAGUGUUAAUUUGAGU [JR_ExcTryptoA_Sub006]	444	488	502	564	306
CGCGCCCAGCCGGAUACCAGUGACCCGCUGGGAACCGCGGGCCCAGAGUGAUGUUCGGGACACCCUUGGCAGCCGCCUGGGCGGC [#2 Same State - Theophylline B Attempt #9 (HarryS)]	1370	229	999	717	766
CGCGCGCGCGCGCGCGCGCGCGCGAAUGAUACCAGUAUAUAAGAAUACCCUUGGCAGCAUAAGAAAGAUAUAGUGAUGUUGUAUA [SSTheophA.B]	285	150	269	422	231
CGCGUGGGUUUGAGAGGGUUUGCGCGAAGUGAGGAUAUUUAGGGAGAAAGAAGGCACUAUAAAAUAUAGUGAUGUUAUAUAAGGG [SSFMNA.J]	877	186	170	242	126
CGUACGGUUUCUUUCUUUCCGUACGAGUGCCGAGGACCGGUACGGCCGCCACUCGCUACAGCCUAGUGAUGUUAGGAACGUGUUA	87.2	73.1	81.8	87.3	54.7
CGUUUAGUGAUGUUAAGCGUCCACUACGAUACCAGAACUAUAACCUUCCCUUGGCAGCGUUUAUAUUGUAACUCAUGUGUUAAUU [theeternabot_exclusion_KL_Theo_A_11]	520	296	474	503	468
CGUUUAUAGCAGGAUACCAGUACCCAUAAAGUACGUUAAUAGUAGAGUGAUGUUCUAAAGUACCCUUGGCAGCUUCCAGUGAGUG [ExTheophylB.S]	102	157	142	165	85.3
CGUUUAUAGCAGGAUACCAGUACCCAUAAAGUACGUUAAUAGUAGAGUGAUGUUCUAAAGUACCCUUGGCAGCUUCCCGUGACCC [ExTheophylB.W]	103	160	133	182	79.6
CUCACAGUGAUGUUGUGGGCCGAGAGUGAUACCAGCCGUAUUUGUGGCCCUUGGCAGCGCAAAAGCCGAGUGAUGUUCGAAUCGG [Same State Theophylline A GF 24]	211	196	207	190	192
CUCGAGUGAUGUUCGAUUAUUUAUACAGAUACCAGUGAAUUUUAACACCCUUGGCAGCUGGUUGUAUCUUUGUAAUUUACACAAG [JR_ExcTheophyA_Sub005]	120	168	113	151	93.6
CUCGUGGGUUUGAGAGGGCUUGUGGGAAGUGAGGAUAUUUAGGGAGAAAGAAGGCACUAUAGAAUAUAGUGAUGUUAUGUAAGGG [SSFMNA.O]	466	954	492	180	348
CUGGGUUGACGAAAAGUCAACAAACGAGAAGGAGCGCACGAAAGUGCAGGUAGGUCGCUCAGUCCAGUGAUGUUGGAACAUCCAG [#SwitchBubble 8 #K4Late]	664	498	462	508	436
CUGGGUUGACGAAAAGUCAACAAACGAGAAGGAGCGCACGAAAGUGCAGGUAGGUCGCUCAGUCCAGUGAUGUUGGAUCAUCCAG [#SwitchBubble 9 #K4Late]	265	763	687	840	323
